Data as given in publication PMC9482650, “Quantitative fragmentomics allow affinity mapping of interactomes” (Nature Communications, 2022).

B1: ABCA7, Q8IZY2 (peptide)
chain: DDPSTAETVL
B2: BPIFA2, Q96DR5 (peptide)
chain: QHKTQLQTLI

Each binder was assayed against T1, DFNB31_1, Q9P202 (assay: holdup assay). Conditions: plain residues with an end cap or a label only (N-terminal biotin on a linker: ado-ado).
T1 sequence (Q9P202 135-233, limits assumed, looked up): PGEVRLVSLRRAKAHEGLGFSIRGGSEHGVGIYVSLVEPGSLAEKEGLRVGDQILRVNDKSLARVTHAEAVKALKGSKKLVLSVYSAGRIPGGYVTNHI
Design: key: below the threshold = too weak to quantify, mostly under pKd 3.1 to 4

pKd	Binder
below the threshold	B1
4.38	B2

Each binder was assayed against DLG1_3, Q12959 (assay: holdup assay). Conditions: plain residues with an end cap or a label only (N-terminal biotin on a linker: ado-ado).
Design: key: below the threshold = too weak to quantify, mostly under pKd 3.1 to 4

Sequence of DLG1_3, Q12959 (Q12959 457-571): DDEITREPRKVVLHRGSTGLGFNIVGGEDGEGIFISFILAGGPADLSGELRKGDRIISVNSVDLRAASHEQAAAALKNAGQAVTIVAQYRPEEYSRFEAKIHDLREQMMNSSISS

pKd	Binder
below the threshold	B1
3.68	B2

Each binder was assayed against T2, DLG3_1, Q92796 (assay: holdup assay). Conditions: plain residues with an end cap or a label only (N-terminal biotin on a linker: ado-ado).
T2 sequence (Q92796 125-227, limits assumed, looked up): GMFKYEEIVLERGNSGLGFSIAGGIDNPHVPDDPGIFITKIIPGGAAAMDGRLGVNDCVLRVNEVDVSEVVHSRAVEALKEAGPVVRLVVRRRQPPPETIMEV
Design: key: below the threshold = too weak to quantify, mostly under pKd 3.1 to 4

pKd	Binder
below the threshold	B1
3.68	B2

These binders were tested against T3, DLG3_2, Q92796 (assay: holdup assay). Conditions: plain residues with an end cap or a label only (N-terminal biotin on a linker: ado-ado).
T3 sequence (Q92796 221-321, limits assumed, looked up): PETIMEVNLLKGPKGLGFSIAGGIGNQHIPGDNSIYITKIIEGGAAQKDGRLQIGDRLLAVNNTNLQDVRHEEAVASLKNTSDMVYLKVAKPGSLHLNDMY
Design: key: below the threshold = too weak to quantify, mostly under pKd 3.1 to 4

pKd	Binder
4.37	B1
4.08	B2

These binders were tested against DLG4_1, P78352 (assay: holdup assay). Conditions: plain residues with an end cap or a label only (N-terminal biotin on a linker: ado-ado).
Design: key: below the threshold = too weak to quantify, mostly under pKd 3.1 to 4

Sequence of DLG4_1, P78352 (P78352 62-152): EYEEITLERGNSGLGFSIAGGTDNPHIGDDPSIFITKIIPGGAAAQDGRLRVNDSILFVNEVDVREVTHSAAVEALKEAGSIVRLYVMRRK

pKd	Binder
below the threshold	B1
4.38	B2

These binders were tested against GORASP2, Q9H8Y8 (assay: holdup assay). Conditions: plain residues with an end cap or a label only (N-terminal biotin on a linker: ado-ado).
Design: key: below the threshold = too weak to quantify, mostly under pKd 3.1 to 4

pKd	Binder
below the threshold	B1
3.77	B2

The binders below were run against T4, GRIP1_2, Q9Y3R0 (assay: holdup assay). Conditions: plain residues with an end cap or a label only (N-terminal biotin on a linker: ado-ado).
T4 sequence (Q9Y3R0 145-248, limits assumed, looked up): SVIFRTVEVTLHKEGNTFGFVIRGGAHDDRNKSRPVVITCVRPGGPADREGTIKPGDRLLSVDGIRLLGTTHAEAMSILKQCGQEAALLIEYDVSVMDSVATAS
Design: key: below the threshold = too weak to quantify, mostly under pKd 3.1 to 4

pKd	Binder
below the threshold	B1
below the threshold	B2

Each binder was assayed against T5, GRIP1_4, Q9Y3R0 (assay: holdup assay). Conditions: plain residues with an end cap or a label only (N-terminal biotin on a linker: ado-ado).
T5 sequence (Q9Y3R0 467-571, limits assumed, looked up): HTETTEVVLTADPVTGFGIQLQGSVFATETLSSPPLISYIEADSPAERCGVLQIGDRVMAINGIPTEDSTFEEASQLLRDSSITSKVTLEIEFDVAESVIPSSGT
Design: key: below the threshold = too weak to quantify, mostly under pKd 3.1 to 4

pKd	Binder
below the threshold	B1
below the threshold	B2

The binders below were run against HTRA1, Q92743 (assay: holdup assay). Conditions: plain residues with an end cap or a label only (N-terminal biotin on a linker: ado-ado).
Design: key: below the threshold = too weak to quantify, mostly under pKd 3.1 to 4

Sequence of HTRA1, Q92743 (Q92743 360-477): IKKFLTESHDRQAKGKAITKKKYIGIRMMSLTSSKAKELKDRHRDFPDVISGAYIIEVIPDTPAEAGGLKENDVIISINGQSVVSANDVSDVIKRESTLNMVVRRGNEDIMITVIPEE

pKd	Binder
4.64	B1
4.06	B2

What follows are binders tested against T6, HTRA3, P83110 (assay: holdup assay). Conditions: plain residues with an end cap or a label only (N-terminal biotin on a linker: ado-ado).
T6 sequence (P83110 354-453, limits assumed, looked up): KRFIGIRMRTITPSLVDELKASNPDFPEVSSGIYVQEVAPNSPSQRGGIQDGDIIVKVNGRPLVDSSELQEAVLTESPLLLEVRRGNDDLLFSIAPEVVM
Design: key: below the threshold = too weak to quantify, mostly under pKd 3.1 to 4

pKd	Binder
below the threshold	B1
below the threshold	B2

These binders were tested against IL16_1, Q14005 (assay: holdup assay). Conditions: plain residues with an end cap or a label only (N-terminal biotin on a linker: ado-ado).
Design: key: below the threshold = too weak to quantify, mostly under pKd 3.1 to 4

Sequence of IL16_1, Q14005 (Q14005 210-306): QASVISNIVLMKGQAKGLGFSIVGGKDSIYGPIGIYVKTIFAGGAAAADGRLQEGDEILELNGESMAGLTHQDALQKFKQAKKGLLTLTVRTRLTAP

pKd	Binder
below the threshold	B1
below the threshold	B2

The binders below were run against Inadl_10, Q8NI35 (assay: holdup assay). Conditions: plain residues with an end cap or a label only (N-terminal biotin on a linker: ado-ado).
Design: key: below the threshold = too weak to quantify, mostly under pKd 3.1 to 4

Sequence of Inadl_10, Q8NI35 (Q8NI35 1673-1763): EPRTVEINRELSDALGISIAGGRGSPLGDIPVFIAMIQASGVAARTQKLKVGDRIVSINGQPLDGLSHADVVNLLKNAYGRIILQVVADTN

pKd	Binder
below the threshold	B1
below the threshold	B2

Each binder was assayed against Inadl_5, Q8NI35 (assay: holdup assay). Conditions: plain residues with an end cap or a label only (N-terminal biotin on a linker: ado-ado).
Design: key: below the threshold = too weak to quantify, mostly under pKd 3.1 to 4

Sequence of Inadl_5, Q8NI35 (Q8NI35 673-780): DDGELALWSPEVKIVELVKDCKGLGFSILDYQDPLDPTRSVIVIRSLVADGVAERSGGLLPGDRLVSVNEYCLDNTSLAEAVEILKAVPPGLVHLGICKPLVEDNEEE

pKd	Binder
below the threshold	B1
below the threshold	B2

What follows are binders tested against Inadl_9, Q8NI35 (assay: holdup assay). Conditions: plain residues with an end cap or a label only (N-terminal biotin on a linker: ado-ado).
Design: key: below the threshold = too weak to quantify, mostly under pKd 3.1 to 4

Sequence of Inadl_9, Q8NI35 (Q8NI35 1530-1615): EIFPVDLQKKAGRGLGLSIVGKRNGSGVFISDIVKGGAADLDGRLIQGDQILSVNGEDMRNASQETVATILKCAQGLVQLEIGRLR

pKd	Binder
below the threshold	B1
below the threshold	B2

The binders below were run against LAP2, Q96RT1 (assay: holdup assay). Conditions: plain residues with an end cap or a label only (N-terminal biotin on a linker: ado-ado).
Design: key: below the threshold = too weak to quantify, mostly under pKd 3.1 to 4

Sequence of LAP2, Q96RT1 (Q96RT1 other isoform, or with tags, fused parts or gaps): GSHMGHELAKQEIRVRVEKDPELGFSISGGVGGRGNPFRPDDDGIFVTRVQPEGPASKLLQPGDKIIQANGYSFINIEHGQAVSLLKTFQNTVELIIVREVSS

pKd	Binder
3.71	B1
below the threshold	B2

These binders were tested against T7, LIN7B, Q9HAP6 (assay: holdup assay). Conditions: plain residues with an end cap or a label only (N-terminal biotin on a linker: ado-ado).
T7 sequence (Q9HAP6 88-185, limits assumed, looked up): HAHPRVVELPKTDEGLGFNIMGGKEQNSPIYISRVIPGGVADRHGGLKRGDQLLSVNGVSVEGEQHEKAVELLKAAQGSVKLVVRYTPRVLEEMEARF
Design: key: below the threshold = too weak to quantify, mostly under pKd 3.1 to 4

pKd	Binder
3.89	B1
below the threshold	B2

These binders were tested against T8, MPDZ_10, O75970 (assay: holdup assay). Conditions: plain residues with an end cap or a label only (N-terminal biotin on a linker: ado-ado).
T8 sequence (O75970 1624-1722, limits assumed, looked up): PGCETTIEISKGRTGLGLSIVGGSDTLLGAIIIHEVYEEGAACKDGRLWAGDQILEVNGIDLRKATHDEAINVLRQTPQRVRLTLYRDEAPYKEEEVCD
Design: key: below the threshold = too weak to quantify, mostly under pKd 3.1 to 4

pKd	Binder
below the threshold	B1
below the threshold	B2

These binders were tested against NHERF4_4, Q86UT5 (assay: holdup assay). Conditions: plain residues with an end cap or a label only (N-terminal biotin on a linker: ado-ado).
Design: key: below the threshold = too weak to quantify, mostly under pKd 3.1 to 4

Sequence of NHERF4_4, Q86UT5 (Q86UT5 464-550): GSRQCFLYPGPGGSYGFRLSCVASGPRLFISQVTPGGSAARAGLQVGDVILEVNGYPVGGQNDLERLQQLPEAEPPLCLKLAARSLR

pKd	Binder
below the threshold	B1
below the threshold	B2

What follows are binders tested against NOS1, P29475 (assay: holdup assay). Conditions: plain residues with an end cap or a label only (N-terminal biotin on a linker: ado-ado).
Design: key: below the threshold = too weak to quantify, mostly under pKd 3.1 to 4

Sequence of NOS1, P29475 (P29475 9-101): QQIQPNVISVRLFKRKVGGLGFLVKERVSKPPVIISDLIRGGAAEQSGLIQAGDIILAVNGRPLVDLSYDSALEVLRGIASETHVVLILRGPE

pKd	Binder
3.52	B1
4.2	B2

What follows are binders tested against T9, PARD3B_1, Q8TEW8 (assay: holdup assay). Conditions: plain residues with an end cap or a label only (N-terminal biotin on a linker: ado-ado).
T9 sequence (Q8TEW8 196-299, limits assumed, looked up): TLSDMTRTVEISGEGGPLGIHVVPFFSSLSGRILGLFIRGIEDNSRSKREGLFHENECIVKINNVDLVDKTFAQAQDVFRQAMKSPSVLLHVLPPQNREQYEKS
Design: key: below the threshold = too weak to quantify, mostly under pKd 3.1 to 4

pKd	Binder
4.65	B1
4.22	B2

Each binder was assayed against T10, PTPN13_1, Q12923 (assay: holdup assay). Conditions: plain residues with an end cap or a label only (N-terminal biotin on a linker: ado-ado).
T10 sequence (Q12923 1088-1188, limits assumed, looked up): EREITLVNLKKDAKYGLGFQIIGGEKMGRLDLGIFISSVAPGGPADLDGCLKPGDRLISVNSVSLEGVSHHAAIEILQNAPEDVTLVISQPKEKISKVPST
Design: key: below the threshold = too weak to quantify, mostly under pKd 3.1 to 4

pKd	Binder
below the threshold	B1
below the threshold	B2

What follows are binders tested against T11, RHPN1, Q8TCX5 (assay: holdup assay). Conditions: plain residues with an end cap or a label only (N-terminal biotin on a linker: ado-ado).
T11 sequence (Q8TCX5 508-602, limits assumed, looked up): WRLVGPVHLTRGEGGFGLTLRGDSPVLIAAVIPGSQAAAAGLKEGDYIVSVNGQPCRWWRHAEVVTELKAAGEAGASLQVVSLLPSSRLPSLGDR
Design: key: below the threshold = too weak to quantify, mostly under pKd 3.1 to 4

pKd	Binder
4.92	B1
4.26	B2

What follows are binders tested against T12, SYNJ2BP, P57105 (assay: holdup assay). Conditions: plain residues with an end cap or a label only (N-terminal biotin on a linker: ado-ado).
T12 sequence (P57105 8-110, limits assumed, looked up): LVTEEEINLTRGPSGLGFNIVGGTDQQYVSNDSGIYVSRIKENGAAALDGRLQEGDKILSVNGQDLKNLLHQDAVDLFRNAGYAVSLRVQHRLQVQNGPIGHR
Design: key: below the threshold = too weak to quantify, mostly under pKd 3.1 to 4

pKd	Binder
4.16	B1
4.12	B2

What follows are binders tested against TJP1_3, Q07157 (assay: holdup assay). Conditions: plain residues with an end cap or a label only (N-terminal biotin on a linker: ado-ado).
Design: key: below the threshold = too weak to quantify, mostly under pKd 3.1 to 4

Sequence of TJP1_3, Q07157 (Q07157 416-512): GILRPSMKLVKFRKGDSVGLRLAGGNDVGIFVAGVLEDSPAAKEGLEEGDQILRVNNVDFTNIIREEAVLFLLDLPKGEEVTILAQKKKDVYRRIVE

pKd	Binder
below the threshold	B1
below the threshold	B2

These binders were tested against TJP2_1, Q9UDY2 (assay: holdup assay). Conditions: plain residues with an end cap or a label only (N-terminal biotin on a linker: ado-ado).
Design: key: below the threshold = too weak to quantify, mostly under pKd 3.1 to 4

Sequence of TJP2_1, Q9UDY2 (Q9UDY2 24-128): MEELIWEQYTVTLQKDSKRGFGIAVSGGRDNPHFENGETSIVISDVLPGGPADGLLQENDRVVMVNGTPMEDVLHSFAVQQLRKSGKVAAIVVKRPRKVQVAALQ

pKd	Binder
below the threshold	B1
3.66	B2
